Experimental data: patent US20120316071A1 (published 2012)

T1: rHuman Erythropoietin R/Fc Chimera, CF (R&D Systems Cat#963-ER) (human, UniProt P19235 25-250)
T1 construct: Bought reagent; also called EPO R; EPO R/Fc; Fc part of the bought chimera not given
T1 sequence (looked up): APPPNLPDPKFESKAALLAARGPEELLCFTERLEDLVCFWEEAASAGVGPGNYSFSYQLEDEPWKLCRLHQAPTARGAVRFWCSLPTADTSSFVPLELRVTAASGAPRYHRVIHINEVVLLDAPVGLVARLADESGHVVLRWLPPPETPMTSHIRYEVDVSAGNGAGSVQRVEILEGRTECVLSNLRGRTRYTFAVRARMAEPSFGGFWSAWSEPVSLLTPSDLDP

T2: rHuman Erythropoietin R/Fc Chimera, CF (R&D Systems Cat#963-ER) (human, UniProt P19235 25-250)
T2 construct: Bought recombinant protein; also called EPO R/Fc; Epo R; Fc part of the bought chimera not given
T2 sequence (looked up): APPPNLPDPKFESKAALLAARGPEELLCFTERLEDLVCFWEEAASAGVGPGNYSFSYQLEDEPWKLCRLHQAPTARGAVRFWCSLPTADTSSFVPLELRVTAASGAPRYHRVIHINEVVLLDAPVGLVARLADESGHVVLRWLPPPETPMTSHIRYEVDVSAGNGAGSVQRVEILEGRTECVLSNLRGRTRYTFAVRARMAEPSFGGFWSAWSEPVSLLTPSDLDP


Assays:
[1] = target: T3, rHuman IGF-1 sR, CF (R&D Systems Cat#391-GR) (human, UniProt P08069 31-932); assay: ECL Multispot (MSD) assay, antigen spotted on plate, 10 nM Fab; blank spot of this row 344
T3 construct: Bought soluble receptor; The column head prints only 'IGF-1'; also called insulin-like growth factor-1 soluble receptor

[2] = target: T4, rHuman P-Cadherin/Fc Chimera, CF (R&D Systems Cat#861-PC) (human, UniProt P22223 108-654); assay: as above
T4 construct: Bought reagent; Fc part of the bought chimera not given

[3] = target: T1, rHuman Erythropoietin R/Fc Chimera, CF …; assay: as above
[4] = target: T5, rHuman ErbB2/Fc Chimera, CF (R&D Systems Cat#1129-ER) (human, UniProt P04626 23-652); assay: as above
T5 construct: Bought reagent; also called human epidermal growth factor 2 receptor; Fc part of the bought chimera not given

[5] = target: T6, rHuman EGF R/Fc Chimera, CF (R&D Systems Cat#344-ER) (human, UniProt P00533 25-645); assay: as above
T6 construct: Bought reagent; also called epidermal growth factor receptor; Fc part of the bought chimera not given

[6] = target: T7, rHuman HGF R/c-MET/Fc Chimera, CF (R&D Systems Cat#358-MT/CF) (human, UniProt P08581 25-932); assay: as above
T7 construct: Bought reagent; also called HGF R/Fc; hepatocyte growth factor receptor; Fc part of the bought chimera not given

[7] = target: T8, rHuman Notch-1/Fc Chimera, CF (R&D Systems Cat#3647-TK) (human, UniProt P46531 19-526); assay: as above
T8 construct: Bought reagent; Fc part of the bought chimera not given

[8] = target: T9, rHuman CD44/Fc Chimera, CF (R&D Systems Cat#3660-CD) (human, UniProt P16070 21-220); assay: as above
T9 construct: Bought reagent; Fc part of the bought chimera not given

[9] = target: T2, rHuman Erythropoietin R/Fc Chimera, CF …; assay: Multispot ECL (MSD) assay, antigen spotted on plate, Fab at 0.0624 µM; blank spot 960
[10] = target: T10, Recombinant Human DLL4 (R&D Systems Cat#1506-D4/CF) (human, UniProt Q9NR61 27-524); assay: as above
T10 construct: Bought recombinant protein; also called delta-like protein 4; rHuman DLL4

[11] = target: T11, rHuman ErbB2/Fc Chimera, CF (R&D Systems Cat#1129-ER) (human, UniProt P04626 23-652); assay: as above
T11 construct: Bought recombinant protein; also called human epidermal growth factor 2 receptor (ErbB2); Fc part of the bought chimera not given

[12] = target: T12, rHuman EGF R/Fc Chimera, CF (R&D Systems Cat#344-ER) (human, UniProt P00533 25-645); assay: as above
T12 construct: Bought recombinant protein; also called epidermal growth factor receptor (EGF R); Fc part of the bought chimera not given

[13] = target: T13, rHuman HGF R/c-MET/Fc Chimera, CF (R&D Systems Cat#358-MT/CF) (human, UniProt P08581 25-932); assay: as above
T13 construct: Bought recombinant protein; also called HGF R/Fc; hepatocyte growth factor receptor (HGF R/c-Met); Fc part of the bought chimera not given

[14] = target: T14, rHuman Notch-1/Fc Chimera, CF (R&D Systems Cat#3647-TK) (human, UniProt P46531 19-526); assay: as above
T14 construct: Bought recombinant protein; Fc part of the bought chimera not given

[15] = target: T15, rHuman CD44/Fc Chimera, CF (R&D Systems Cat#3660-CD) (human, UniProt P16070 21-220); assay: as above
T15 construct: Bought recombinant protein; Fc part of the bought chimera not given

[16] = target: T16, rHuman IGF-1 sR, (IGF-1 sR), CF (R&D Systems Cat#391-GR) (human, UniProt P08069 31-932); assay: as above
T16 construct: Bought recombinant soluble receptor; also called insulin-like growth factor-1 soluble receptor

[17] = target: T17, rHuman P-Cadherin/Fc Chimera, CF (R&D Systems Cat#861-PC) (human, UniProt P22223 108-654); assay: as above
T17 construct: Bought recombinant protein; Fc part of the bought chimera not given

| ECL signal [1] | ECL signal [2] | ECL signal [3] | ECL signal [4] | ECL signal [5] | ECL signal [6] | ECL signal [7] | ECL signal [8] | ECL signal [9] | ECL signal [10] | ECL signal [11] | ECL signal [12] | ECL signal [13] | ECL signal [14] | ECL signal [15] | ECL signal [16] | ECL signal [17] | Binder |
| --- | --- | --- | --- | --- | --- | --- | --- | --- | --- | --- | --- | --- | --- | --- | --- | --- | --- |
| 293 | 293 | 389 | 356 | 371 | 434 | 363 | 417 | – | – | – | – | – | – | – | – | – | Fab VH1-46_IGHD6-6*01_IGHJ1*01 S102A/S103P/S104F (APF) & L6_IGKJ1*01 (Fab, V domains shown, Tested as a Fab made in E. coli; also called H:APF & L:wt; APF triple mutant) VH: QVQLVQSGAEVKKPGASVKVSCKASGYTFTSYYMHWVRQAPGQGLEWMGIINPSGGSTSYAQKFQGRVTMTRDTSTSTVYMELSSLRSEDTAVYYCAREEYAPFSAEYFQHWGQGTLVTVSS VL: not shown |
| – | – | – | – | – | – | – | – | 2680 | 2580 | 2150 | 2420 | 2450 | 2350 | 2110 | 2030 | 4230 | Fab VH1-46_IGHD7-27*01_IGHJ2*01 & L6_IGKJ1*01 (Fab, V domains shown, Germline Fab made in E. coli; VH was cloned in Plasmid A (CH1 constant region, His6 and Flag tags) and the kappa VL in Plasmid C (kappa CL); Only the variable domains are tied to this Fab by name) VH: QVQLVQSGAEVKKPGASVKVSCKASGYTFTSYYMHWVRQAPGQGLEWMGIINPSGGSTSYAQKFQGRVTMTRDTSTSTVYMELSSLRSEDTAVYYCARANWGYWYFDLWGRGTLVTVSS VL: not shown |
